Data on 2 substances can be found in PMC2119998.

What all share (experiment): radioligand binding
Assay [1] addresses Ng-CAM (chicken) (chicken) (UniProt Q03696).
A further assay addresses laminin.
The target in assay [2] is Ng-CAM and N-CAM (physiological salt).

Chain of neurocan (P55067 23-1257): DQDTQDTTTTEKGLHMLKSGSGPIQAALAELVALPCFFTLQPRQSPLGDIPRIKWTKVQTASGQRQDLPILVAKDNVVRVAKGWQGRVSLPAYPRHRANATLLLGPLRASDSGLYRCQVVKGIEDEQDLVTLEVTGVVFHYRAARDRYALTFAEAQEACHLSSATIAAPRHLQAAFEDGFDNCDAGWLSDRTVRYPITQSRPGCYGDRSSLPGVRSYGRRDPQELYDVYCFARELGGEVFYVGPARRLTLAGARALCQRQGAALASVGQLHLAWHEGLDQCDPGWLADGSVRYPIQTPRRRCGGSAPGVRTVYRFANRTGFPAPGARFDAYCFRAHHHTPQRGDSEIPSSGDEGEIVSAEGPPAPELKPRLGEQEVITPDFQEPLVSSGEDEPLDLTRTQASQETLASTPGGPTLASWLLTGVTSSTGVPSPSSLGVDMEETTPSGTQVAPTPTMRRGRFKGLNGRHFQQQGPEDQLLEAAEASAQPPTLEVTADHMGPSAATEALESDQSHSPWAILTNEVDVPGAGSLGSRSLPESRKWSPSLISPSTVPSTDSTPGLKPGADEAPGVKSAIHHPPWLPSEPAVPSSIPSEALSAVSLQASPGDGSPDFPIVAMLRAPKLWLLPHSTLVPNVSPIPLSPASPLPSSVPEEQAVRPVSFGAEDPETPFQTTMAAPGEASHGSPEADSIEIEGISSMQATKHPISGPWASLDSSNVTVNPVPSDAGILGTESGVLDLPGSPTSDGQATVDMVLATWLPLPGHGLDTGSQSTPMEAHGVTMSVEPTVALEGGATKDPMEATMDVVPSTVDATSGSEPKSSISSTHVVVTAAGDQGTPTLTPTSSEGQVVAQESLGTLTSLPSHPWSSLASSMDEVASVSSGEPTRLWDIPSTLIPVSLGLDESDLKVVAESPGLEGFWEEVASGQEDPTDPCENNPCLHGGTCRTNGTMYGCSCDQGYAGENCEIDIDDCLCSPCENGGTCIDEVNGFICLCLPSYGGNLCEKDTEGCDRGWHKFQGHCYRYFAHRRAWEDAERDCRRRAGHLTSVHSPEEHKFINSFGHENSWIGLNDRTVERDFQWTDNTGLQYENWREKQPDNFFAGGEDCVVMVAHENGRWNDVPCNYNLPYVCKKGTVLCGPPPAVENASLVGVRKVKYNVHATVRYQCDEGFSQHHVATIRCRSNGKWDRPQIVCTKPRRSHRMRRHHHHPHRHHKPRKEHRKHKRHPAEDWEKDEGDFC
Chain of Ng-CAM (chicken) (chicken) (Q03696 21-1266): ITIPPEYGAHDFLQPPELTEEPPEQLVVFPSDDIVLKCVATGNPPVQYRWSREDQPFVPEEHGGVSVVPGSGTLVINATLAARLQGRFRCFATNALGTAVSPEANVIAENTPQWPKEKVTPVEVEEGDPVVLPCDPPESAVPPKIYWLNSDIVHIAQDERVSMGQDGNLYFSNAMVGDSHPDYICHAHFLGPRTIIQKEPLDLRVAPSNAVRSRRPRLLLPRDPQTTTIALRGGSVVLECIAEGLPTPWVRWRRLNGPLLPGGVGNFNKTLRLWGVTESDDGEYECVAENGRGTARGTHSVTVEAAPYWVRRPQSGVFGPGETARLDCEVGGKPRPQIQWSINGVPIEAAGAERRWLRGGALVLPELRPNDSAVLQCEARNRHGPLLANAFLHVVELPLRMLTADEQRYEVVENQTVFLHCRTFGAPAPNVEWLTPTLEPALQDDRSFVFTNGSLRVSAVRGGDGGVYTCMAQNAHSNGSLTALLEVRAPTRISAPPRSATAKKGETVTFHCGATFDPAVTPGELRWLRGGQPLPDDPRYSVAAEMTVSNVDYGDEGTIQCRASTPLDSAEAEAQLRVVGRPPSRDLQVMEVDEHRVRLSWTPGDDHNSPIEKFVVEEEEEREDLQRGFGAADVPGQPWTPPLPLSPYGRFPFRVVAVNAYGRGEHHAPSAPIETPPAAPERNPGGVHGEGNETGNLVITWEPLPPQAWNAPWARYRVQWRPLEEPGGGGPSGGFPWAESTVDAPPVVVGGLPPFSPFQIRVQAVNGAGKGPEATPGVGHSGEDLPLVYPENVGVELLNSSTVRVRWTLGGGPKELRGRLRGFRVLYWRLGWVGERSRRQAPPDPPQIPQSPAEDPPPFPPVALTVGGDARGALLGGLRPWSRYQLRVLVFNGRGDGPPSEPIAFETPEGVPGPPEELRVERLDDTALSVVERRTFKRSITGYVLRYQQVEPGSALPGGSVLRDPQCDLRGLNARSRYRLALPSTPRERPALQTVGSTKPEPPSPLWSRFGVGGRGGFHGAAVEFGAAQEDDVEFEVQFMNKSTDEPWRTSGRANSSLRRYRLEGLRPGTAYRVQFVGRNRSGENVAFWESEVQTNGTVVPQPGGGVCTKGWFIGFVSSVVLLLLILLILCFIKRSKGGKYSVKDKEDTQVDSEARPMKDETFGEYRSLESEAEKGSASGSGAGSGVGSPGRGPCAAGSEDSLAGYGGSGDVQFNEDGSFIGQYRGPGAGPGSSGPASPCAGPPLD

neurocan-C (domain or fragment): in assay [1], the Kd turned out to be 5.3 nM and the t1/2 of dissociation in excess buffer was found to be 4 h.

In the assay with laminin, “neurocan (from UniProt P55067 23-1257) (natural protein)” returned a percent of total counts bound of 9%. Moreover, the percent decrease of binding in isotonic against hypotonic buffer in assay [2] lay within 35 to 60%.

A word on the Kd: it is the concentration at which binding is half-saturated. The low end stands for higher affinity, the high end for lower affinity.
